From patent publication US20140121131A1 (AFFINITY BIOSCIENCES, published 2014)

Experiments:
biotinylated His6-GFP [1] = target: T1, biotinylated His6-GFP (UniProt P42212 1-238 = GFP); assay: phage capture on streptavidin Dynal beads labelled with biotinylated His6-GFP; fusion protein not induced; reference is Hy5 phage with wild-type gpL
T1 construct: Held on streptavidin magnetic particles or Dynal beads; also called biotinylated eGFP; Biotin-labeled eGFP; not shown: His6 tag

biotinylated His6-GFP [2] = target: T1, biotinylated His6-GFP; assay: phage capture on streptavidin Dynal beads labelled with biotinylated His6-GFP; fusion protein induced with arabinose; reference is Hy5 phage with wild-type gpL

B1: αGFP::I27::gpL fusion protein (VHH)
chain: MGDGMQVQLVESGGALVQPGGSLRLSCAASGFPVNRYSMRWYRQAPGKEREWVAGMSSAGDRSSYEDSVKGRFTISRDDARNTVYLQMNSLKPEDTAVYYSNVNVGFEYWGQGTQVTVSSNSSSQTSLIEVEKPLYGVEVFVGETAHFEIELSEPDVHGQWKLKGQPLTASPDCEIIEDGKKHILILHNCQLGMTGEVSFQAANAKSAANLKVKELNSSSDYKDDDDKGNGTLIIPRKEAPVSGEGTVVIPQPAGDEPVIKNTFFFPDIDPKRVRERMRLEQTVAPARLREAIKSGMAETNAELYEYREQKIAAGFTRLADVPADDIDGESIKVFYYERAVCAMATASLYERYRGVDASAKGDKKADSIDSTIDELWRDMRWAVARIQGKPRCIVSQI
notes: also called Hy5 + αGFP:I27:gpL; gpL capsid fusion protein
Enrichment (fold over Hy5) (biotinylated His6-GFP [1]): 6.5 fold over Hy5
Enrichment (fold over Hy5) (biotinylated His6-GFP [2]): 82 fold over Hy5
